# Assay results taken from the DeepSol protein solubility set.
# Assay: soluble on expression in E. coli; label from the status in PepcDB or PDB records
row,Sequence,soluble on expression in E. coli
1,MLEEDKIKGMFNPKIWDKTFQDGLKKEIEDSQPYNWGTIHELVNDDLLRAVRKEIETEIHFTKKETDIYRVNQSGDLANLSGLDWDDLSRLPNLFKLRQILYSKQYRDFFGYVTKAGKLSGSKTDMSINTYTKGCHLLTHDDVIGSRRISFILYLPDPDRKWKSHYGGGLRLFPSILPNVPHSDPSAKLVPQFNQIAFFKVLPGFSFHDVEEVKVDKHRLSIQGWYHIPQVGEEGYIPGEEEAWVRNNTSTLAQIESNVLEDFEFPKDERNILSFHEVKHFEKMLKGDAGAKTDNTPKESMTSVISDSVKLSEAEFTYLSQYISPEHLSSKGIEKLQKQFVENSSLQIESFLNDDKSELLKKVIKQKELEQECPYHSKDVKAPWKTAIPPHKARYLYIDGKEYRNFQTEADILEALNNNDLPNFQFTKDAIKIISDASGNSRENNFDAELALIDLAVFHKSTIFKKYLALLTSLCPVSEQILIRRFRPGMDFTLATKCRFNELLKSNPDIIDAVLEGTLCLTPSAGWESGELGGYELYMMDDDEDNKQYLKEDVEDASVYRADDSGDSVLINDPPAWNTFNLVLRDESVLEFVKYVSWSAKSSRWDVKMKWDVKSCDEDGQEDEALEHHHHHH,soluble
2,MLEIVSEELRHYQEQKLIEYRNKNQLAPKGGIVFAGDSLIEFFPLKKAFGSCLPIINRGIAGIDSQWLLRHFSVQITDLEPKHIFLLIGCNDIGLGYDKCHIVKTIVELISQIRSHCVYSQIYLLSLLPVSNNPRYQKTVKIRTNAMIDAINKDLAMIPTVEFINLNTCLKDEKGGLSDENTLDGLHLNFPAYAKLAEIIKSYI,not soluble
3,MLELAILGLLIESPMHGYELRKRLTGLLGAFRAFSYGSLYPALRRMQADGLIAENAAPAGTPVRRARRVYQLTDKGRRRFGELVADTGPHNYTDDGFGVHLAFFNRTPAEARMRILEGRRRQVEERREGLREAVARASSSFDRYTRQLHQLGLESSEREVKWLNELIAAERAAPNPAEQT,not soluble
4,MLFDSHAHYDNKRFDEDRFEVIKKAYDSGVSYILNAAADMASSLETVSLTRKFDFIYGAVGVHPHEVAKMSDDDIEKLKDFAKEEKIVAIGEIGLDYYYDFSPREQQKLWFARQINLAKELNLPIIVHDRDAHKDVLDIVKAEQAKDVGGVFHCYSGSVEMLKDVLENNFYISVGGTLTFKNAKRVVEVVERVPLDRLLIETDCPYLTPEPHRGKRNDSSYVRLVAEKIAKIRGMSFEEVAEITTNNAKRLFGIK,not soluble
5,MLFVLILSHRAASYGAIMAALPYMQLYIADYLADTMHLSAEEHGAYLLLMFNYWQTGKPIPKNRLAKIARLTNERWADVEPSLQEFFCDNGEEWVHLRIEEDLASVREKLTKKSAAGKASVQARRSRKEADVQTKQERNLTGVQTDVEVVFEHDVNTKATNKDTDKDLKTDPPLNPPRGNRGVKKFDPLDITLPNWISVSLWREWVEFRQALRKPIRTEQGANGAIRELEKFRQQGFSPEQVIRHSIANEYQGLFAPKGVRPETLLRQVNTVSLPDSAIPPGFRG,not soluble
6,MLGDGLSVALAGLLHDVGKLYSRARWGERDDQVPDRTHTAYTAHFVREHAGLFRGAGLDPDWLARTASRHHEGWRDRPQYRPETPEEWCVALADTYASKEREEGEGGGSPPEVPLSPPFRRLLLGGEEGREGGYSPVGAGGRVGLEAGGLYPEERPNVSKDVYKRLLERLEGRLEEMARFSLGKEALVLNLALALQETLSLVPSDTQSEPDVSLYDHLRLTAAIAHALWLFHGGSPSAQNLRQDGEKFLLVVGDMGGIQGHIYRIAGAEAGVGGIAKRLRARSLEVSLAAEAMALGLLWRLGLTSLNRILGAGGKFYLLLPNTEEARAALEGTREAWGRWALKRGGSLVPHLAWVAFRGQDFRDFAALLKRLHEALAREKLRPFAFLASTGGVLGAPLRPCAACGLEPARRDEPGSLCPDCEREAALGARLPRSDRVGFFLEEAPRPYLDFPGLKVGLGGPLEGAFHLFRARLDFAPWPDPSEAKPLLGHLPRVEHALKAKGWSLEAYRAWAEEEGLLEDEEPHPEKVLTFAELAALSEGAPYLGALMLDADRMGEAFATGFRREGRDLATPSRLAALSRTLEVFFTTEVLTLLEEPRRYRERLGWDDLEAQRKEARYPLLYSVYSGGDDLFLLGPWDALLDFALDLERLYRLFTRHPRLTLSGGFLLVPPSLPVPELARLLGEAEKRAKAEGRERLFLFGQAVPWETLRGLRAWAEGLRQDLRAERVSRAQVYRWLLLWRRFSPLEDPGERMRYKPLLAYALRRVRERDEEAWKRYLKLLDHQDPAWAYLPVWVQWALYRERRV,soluble
7,MLGKSLVKEKITDSVVSSPNGLVLLAPEMTLPVDVEENKPEESKDSAHERNCATAGVESPSNPVDSCLKLTYVEEGDNDRESNLKLLDGSVEEKEDTKKLTDIDINSLPDEVDDSHADQSDTKEQEIDDKEDKTPLSDDGCEGKAEGTKESNQQPDSNKVDNSQPLGNGGTGEELGNRTLALKREVTPTLRASPRLIQRSWRTSRVNQKFTGTTNAVLLDSPHRCV,soluble
8,MLGLFDQGRLIGAVVLDPRRLGPERDWLQLKFLHLSHAYRRRGLGAHLFHLAATQARHLGASALYVSATPSQNTVDFYTRLGCR,soluble
9,MLGMHFTPVEVFHRYIMPQIRDHLNDYLWVDMFCGEGNLILPMLDYIDRDRRGEFFRDHIMCFDIDESAVERSIENAMKYGIPQEMARRNIRTRDTLMDYPVLSGRYPVFHITNPPYLYLGYIRKRKDARRHQEYFEGQNDGYQDLYQIAMMNDLRHGIGNMIYIIPSNFFFSDAGTRKIREDFLKIYRIGSCYIFERRIFPSTGTNVMILSFQRSQSPVESIEFDAIRINKHEEKKRYVLRSENNFKPDNEYQDYIRAHFRPDHPVVKFYLTYDEIGKNPGNNRVVLVNSKEYRHGEYERETFSVNDDLYARIKSNPLYVRTVDKGTREGRSGIYSIIRDFGADGIFVKGPTYRTSPIQIFIDPPLSANEALKLMEIFNRTLNDLRERSDSDFMTTYKYSDSAAYVRKYLGLKQVRGIMSTISLEDLKDGASSTDL,not soluble
10,MLHTTDFSDIFSSDYSSKVSFKKGDIIHSFKDYEKKPPQIGVILEGTAVLEGPTNEGRWMINALISENAIFGMESLLETKTAPELTEYRVRALENGRALFIDREFFLNYLYANPHFFHLVLDDVIVRYLFTAKNYKNINQPPIIKVTRIFVEIIELLNLHQTEGPIVLPSYITQTFLADYCRSSRARITESLEELLVNGLLASKKPITISSHEKLLDQIDSFQTGNGLLTK,not soluble
11,MLHTTQLYQHVPETRWPIVYSPRYNITFMGLEKLHPFDAGKWGKVINFLKEEKLLSDSMLVEAREASEEDLLVVHTRRYLNELKWSFAVATITEIPPVIFLPNFLVQRKVLRPLRTQTGGTIMAGKLAVERGWAINVGGGFHHCSSDRGGGFCAYADITLAIKFLFERVEGISRATIIDLDAHQGNGHERDFMDDKRVYIMDVYNRHIYPGDRFAKQAIRRKVELEWGTEDDEYLDKVERNIKKSLQEHLPDVVVYNAGTDILEGDRLGGLSISPAGIVKRDELVFRMVRGRRVPILMVTSGGYQKRTARIIADSILNLFGLGLIGPESPSVSAQNSDTPLLPPAVP,soluble
12,MLIAVPLDDTNFSENLKKAKEKGADIVELRVDQFSDTSLNYVKEKLEEVHSQGLKTILTIRSPEEGGREVKNREELFEELSPLSDYTDIELSSRGLLVKLYNITKEAGKKLIISYHNFELTPPNWIIREVLREGYRYGGIPKIAVKANSYEDVARLLCISRQVEGEKILISMGDYGKISRLAGYVFGSVITYCSLEKAFAPGQIPLEEMVELRKKFYRL,soluble
13,MLIFKIFRRSEWDDFRRAGATAGAPVDLADGYIHFSTAAQVAETAAKHFTAESDLVLVAIDPDRAGPDLKWEPSRGEQLFPHLYRRLTLDDVVWDKSLPLGATGHIFPEGLWLEHHHHHH,soluble
14,MLILMDPEETGKAPEIRALKSRAVNRVDSDLGRMEAVKRLKGVEDRRVGSEVFDELTLKTLYKLANSGYLAVLNGAVSTGKEANVFKGITDTDDFVAVKIYRVATSDFKKMQYYIQGDPRFKVRTTNRRQLVQAWVNKEFRNLKRALEAGVRVPEPVTARDNVLIMEFIGKDGVPAPTMRDAPPEDPEEALETIIEYMHRLYKGARLVHGDLSFFNILNHCGEPVIIDVSQAMVLDHPLAGELLERDIENIIRDFRRIGVSVSADYIRERITGK,soluble
15,MLIMNIRKIDDYTYEIPREGDMIVHGIVYSTDKLFKNTVEDGSLNQVVNVAKLPGIVEASYAMPDIHLGYGFPIGGVAAFDYDEGIISPGGVGYDINCGVALLRTGMNYAQIKPRIKDITDYIFQEVPSGLTSRKGFPVNQNDLQEILTSGLKWAVSRGLATELDMINTEDNGSIESHGTHVSKQAMQRGLSQIGTLGAGNHFLEIQRVSDIFDEDVARKFGLYKDEVTVMIHTGSRGLGHQVATDYLRELRESRESIKTSDPELISIHVKSKIGENYLDAMKSAANFAFVNRQMAIYGVRKVFKKFFDVEPELVYSLAHNIAKVEDHIVEGKTKSLIVHRKGATRAFGPGKSSPPFEDTGHPVLIPGSMGTASYVLVGVKENLIKSFGTACHGSGRVLSRNQAIKKFSSIVDRELEEKDVYARPATKRVLYEEAPGSYKNVDEVVAAVEGAHLARSIVRMVPLAVVKGLEHHHHHH,not soluble
16,MLKGIPKIIPPELLKVLCEMGHGDQLVIADGNFPAESIGKNAIVVRMDGHGGGEILKAILTVFPLDTYVDKPATLMEKVPGDTVATPIWDVYAGLIKEHDERGADAIGSLERFAFYEQAKNAYCVIASGESAQYANLILQKGVVFNAE,soluble
17,MLKHKIINLIQEKREGSYWDFKAEYHKDKAELLHDIICLSNNLLNQEAYLILGVADNGHILGVAGDSNRKNQEELISFITGKKFAAGRHPKISLMTFEYEEKEIDVIIINPKGYVPYYLERAETDQKSKKNKTVNAGSIYTRVEDKNTPIDSTASPLDTEILWKMHFGLYPTPIKRLQNYLLTPEKWMQNSTGYFHSESPEYIVYKNEDIEEKENYFNLVSPFYAYNQINSNTLYSYYEFKYHSTVLYGCRCISLDSGIYTTPVPELGEINFNMHRDDTIYYRYFIEETMLYNIHLFMYKGDSMEEKFAMDKFLECVLVYKSDVEKELFENYILDNWDKVNQSINENNKRVFGTEHLSQLEKEDITKKVKTVKVLKDELENFRTLEHHHHHH,not soluble
18,MLKKMGEAVARVARKVNETVESGSDTLDLAECKLVSFPIGIYKVLRNVSGQIHLITLANNELKSLTSKFMTTFSQLRELHLEGNFLHRLPSEVSALQHLKAIDLSRNQFQDFPEQLTALPALETINLEENEIVDVPVEKLAAMPALRSINLRFNPLNAEVRVIAPPLIKFDMLMSPEGARAPLP,not soluble
19,MLKLQTLQALICIEEVGSLRAAAQLLHLSQPALSAAIQQLEDELKAPLLVRTKRGVSLTSFGQAFMKHARLIVTESRRAQEEIGQLRGRWEGHITFAASPAIALAALPLALASFAREFPDVTVNVRDGMYPAVSPQLRDGTLDFALTAAHKHDIDTDLEAQPLYVSDVVIVGQRQHPMANATRLAELQECRWAFSSAPRGPGAIIRNAFARYGLPEPKLGLVCESFLALPGVVAHSDLLTTMPRTLYERNAFKDQLCSIPLQDALPNPTIYVLRRHDLPVTPAAAGLIRWIQHHALQTGHHHHHH,soluble
20,MLKNLRIRKFEPEEEYVYFTYSIKNDKREKSKELIREYTTLLQKAIDYLWNLTKIQVRKKNGNYKITLPKKREVYKPLREELEKINHLASHYVDKAINDAFSILKSWRKRAIKGRASIEKPRVKKAYVRIKTTLRKVVGESVRITVRPHEYITFSWSKSWFSRRVRELELGEPIIKEEKVYLPFRYKLPWATPVDFLAIDSNLYTLDAYDGEKFVTISLKQLYSLKYSMEVKRAKVQSFASKHTKRGRELMRKYSHRERNRVLDFVHKFVNTLLDLYPMTFFAVEKLNKESMFKDANDSLSRKISRTVWGSIHRVLKYKAPLYGSFVKEVNPRFTSRSCPRCGFVSRKVGKTFECERCGFKLDRQLNASLNIYLKMCGFPHIREIARVWVGVIPLMGRRGMNGFPRDFGEAQGLRIDIEYHEIPLEHHHHHH,soluble
